# Source: PMC10470925 (PLOS ONE, 2023)
# B1: Staphylococcus aureus alpha-hemolysin (Hla) (natural protein)
# chain: ADSDINIKTGTTDIGSNTTVKTGDLVTYDKENGMHKKVFYSFIDDKNHNKKLLVIRTKGTIAGQYRVYSEEGANKSGLAWPSAFKVQLQLPDNEVAQISDYYPRNSIDTKEYMSTLTYGFNGNVTGDDTGKIGGLIGANVSIGHTLKYVQPDFKTILESPTDKKVGWKVIFNNMVNQNWGPYDRDSWNPVYGNQLFMKTRNGSMKAADNFLDPNKASSLLSSGFSPDFATVITMDRKASKQQTNIDVIYERVRDDYQLHWTSTNWKGTNTKDKWTDRSSERYKIDWEKEEMTN
# Target: the molecule itself
# Assay: deoxycholate-induced oligomerization, PAGE and western blot
protein,measurement,value
B1,stoichiometry N,7
